Legend:
[1] = target: human Trop-2 on the surface of cells (CHO/Trop-2 cells; BxPC-3 cells; NCI-N87 cells) (human) (UniProt P09758); assay: FACS, BxPC cells, antibody left on the surface, control kept at 4° C.
[2] = target: human Trop-2 on the surface of cells (CHO/Trop-2 cells; BxPC-3 cells; NCI-N87 cells) (human) (UniProt P09758); assay: cell-based or functional assay
[3] = target: human Trop-2 on the surface of cells (CHO/Trop-2 cells; BxPC-3 cells; NCI-N87 cells) (human) (UniProt P09758); assay: FACS, BxPC cells, antibody left on the surface after 3 h at 37° C.

human Trop-2 on the surface of cells (CHO/Trop-2 cells; BxPC-3 cells; NCI-N87 cells) (human), sequence (P09758 27-323): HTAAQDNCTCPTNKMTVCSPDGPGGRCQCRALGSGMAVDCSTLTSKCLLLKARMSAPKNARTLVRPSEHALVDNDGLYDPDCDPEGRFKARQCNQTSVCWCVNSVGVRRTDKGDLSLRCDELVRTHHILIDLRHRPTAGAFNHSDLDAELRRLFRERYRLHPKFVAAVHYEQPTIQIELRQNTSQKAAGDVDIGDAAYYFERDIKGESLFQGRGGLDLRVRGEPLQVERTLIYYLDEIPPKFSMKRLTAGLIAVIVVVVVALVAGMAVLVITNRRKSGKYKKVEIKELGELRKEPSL

Fluorescence intensity (MFI), 4° C. [1]: 739 MFI
Internalization percentage (%), 3 h, BxPC cells, FACS [2]: 3.29%
Internalization percentage, 1 h, BXPC-3 cells, FACS [2]: -63%
Internalization percentage, 1 h, NCI-N87 cells, FACS [2]: -95%
Fluorescence intensity (MFI), 37° C. [3]: 715 MFI
Substance: IgG1 isotype control antibody NC-IgG1
